The test system of series [1] is SEAP-APPsw fusion protein (secretory alkaline phosphatase fused to APP 581-695 with glutamic acid at position 17 of β-amyloid and Swedish mutations).
Series [2] concerns SEAP-APPwt fusion protein (secretory alkaline phosphatase fused to APP 581-695, no Swedish mutations).
Series [3] concerns BE11-hAPP695 with alanine at position 17 of β-amyloid.
In series [4] the test system is BE11-hAPP695 with glutamic acid at position 17 of β-amyloid.
Series [5] has as its system BE11-hAPP695 with lysine at position 17 of β-amyloid.
The test system of series [6] is BE11-hAPP695 with proline at position 17 of β-amyloid.
BE11-hAPP695 with proline at position 17 of β-amyloid, sequence (chain, as listed by the source): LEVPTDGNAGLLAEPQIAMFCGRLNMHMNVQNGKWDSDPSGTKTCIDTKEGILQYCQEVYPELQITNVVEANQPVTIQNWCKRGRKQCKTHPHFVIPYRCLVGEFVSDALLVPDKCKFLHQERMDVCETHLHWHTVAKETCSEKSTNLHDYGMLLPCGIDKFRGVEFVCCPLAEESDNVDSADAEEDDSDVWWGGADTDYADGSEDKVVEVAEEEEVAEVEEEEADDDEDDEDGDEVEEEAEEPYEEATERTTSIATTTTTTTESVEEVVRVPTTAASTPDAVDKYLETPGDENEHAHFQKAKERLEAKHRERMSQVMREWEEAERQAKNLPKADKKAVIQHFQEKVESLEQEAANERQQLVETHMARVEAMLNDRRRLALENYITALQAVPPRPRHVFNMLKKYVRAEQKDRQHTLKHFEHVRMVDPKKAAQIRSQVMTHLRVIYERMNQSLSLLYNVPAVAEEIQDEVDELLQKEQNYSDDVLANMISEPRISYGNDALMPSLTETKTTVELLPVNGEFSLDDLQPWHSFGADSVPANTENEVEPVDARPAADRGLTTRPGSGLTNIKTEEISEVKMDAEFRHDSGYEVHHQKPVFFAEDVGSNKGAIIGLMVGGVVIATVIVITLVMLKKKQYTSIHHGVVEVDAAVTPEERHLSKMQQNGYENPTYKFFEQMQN
The subject of series [7] is BE11-hAPP695 with tryptophan at position 16 of β-amyloid.

BE11-hAPP695 with lysine at position 17 of β-amyloid, sequence (chain, as listed by the source): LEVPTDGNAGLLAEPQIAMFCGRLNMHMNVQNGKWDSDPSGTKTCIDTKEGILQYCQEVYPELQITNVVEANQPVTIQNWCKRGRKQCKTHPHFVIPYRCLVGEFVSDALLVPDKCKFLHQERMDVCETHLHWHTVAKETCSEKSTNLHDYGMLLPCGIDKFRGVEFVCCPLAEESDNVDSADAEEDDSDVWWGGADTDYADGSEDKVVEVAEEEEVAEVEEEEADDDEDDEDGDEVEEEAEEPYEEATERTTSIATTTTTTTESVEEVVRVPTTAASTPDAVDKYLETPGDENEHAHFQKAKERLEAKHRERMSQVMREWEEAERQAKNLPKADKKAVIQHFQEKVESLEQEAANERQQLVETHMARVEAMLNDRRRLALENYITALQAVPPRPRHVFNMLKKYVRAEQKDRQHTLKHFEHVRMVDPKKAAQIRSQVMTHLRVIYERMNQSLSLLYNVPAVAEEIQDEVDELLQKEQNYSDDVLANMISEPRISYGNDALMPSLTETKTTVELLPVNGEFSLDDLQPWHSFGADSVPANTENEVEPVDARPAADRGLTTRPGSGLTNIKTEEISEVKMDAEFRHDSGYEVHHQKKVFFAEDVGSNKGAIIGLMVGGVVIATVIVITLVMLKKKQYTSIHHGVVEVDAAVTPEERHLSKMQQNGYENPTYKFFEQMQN
BE11-hAPP695 with tryptophan at position 16 of β-amyloid, sequence (chain, as listed by the source): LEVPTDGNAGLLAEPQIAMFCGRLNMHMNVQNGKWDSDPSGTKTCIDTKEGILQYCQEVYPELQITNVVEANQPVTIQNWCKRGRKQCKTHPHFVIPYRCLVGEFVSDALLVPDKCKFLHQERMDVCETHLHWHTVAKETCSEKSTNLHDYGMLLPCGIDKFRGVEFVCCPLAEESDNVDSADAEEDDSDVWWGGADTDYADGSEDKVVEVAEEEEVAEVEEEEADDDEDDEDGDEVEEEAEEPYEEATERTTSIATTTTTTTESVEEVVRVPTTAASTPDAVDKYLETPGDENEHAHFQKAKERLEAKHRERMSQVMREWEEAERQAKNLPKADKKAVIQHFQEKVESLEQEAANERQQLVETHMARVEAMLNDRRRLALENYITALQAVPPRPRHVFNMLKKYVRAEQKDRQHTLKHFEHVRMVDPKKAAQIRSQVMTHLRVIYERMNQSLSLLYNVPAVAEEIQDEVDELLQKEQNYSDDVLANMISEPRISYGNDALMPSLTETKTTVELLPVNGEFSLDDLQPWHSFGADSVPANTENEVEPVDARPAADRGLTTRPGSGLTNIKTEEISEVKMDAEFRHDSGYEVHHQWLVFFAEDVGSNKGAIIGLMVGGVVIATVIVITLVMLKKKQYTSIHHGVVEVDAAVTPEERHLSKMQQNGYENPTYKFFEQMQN
BE11-hAPP695 with alanine at position 17 of β-amyloid, sequence (chain, as listed by the source): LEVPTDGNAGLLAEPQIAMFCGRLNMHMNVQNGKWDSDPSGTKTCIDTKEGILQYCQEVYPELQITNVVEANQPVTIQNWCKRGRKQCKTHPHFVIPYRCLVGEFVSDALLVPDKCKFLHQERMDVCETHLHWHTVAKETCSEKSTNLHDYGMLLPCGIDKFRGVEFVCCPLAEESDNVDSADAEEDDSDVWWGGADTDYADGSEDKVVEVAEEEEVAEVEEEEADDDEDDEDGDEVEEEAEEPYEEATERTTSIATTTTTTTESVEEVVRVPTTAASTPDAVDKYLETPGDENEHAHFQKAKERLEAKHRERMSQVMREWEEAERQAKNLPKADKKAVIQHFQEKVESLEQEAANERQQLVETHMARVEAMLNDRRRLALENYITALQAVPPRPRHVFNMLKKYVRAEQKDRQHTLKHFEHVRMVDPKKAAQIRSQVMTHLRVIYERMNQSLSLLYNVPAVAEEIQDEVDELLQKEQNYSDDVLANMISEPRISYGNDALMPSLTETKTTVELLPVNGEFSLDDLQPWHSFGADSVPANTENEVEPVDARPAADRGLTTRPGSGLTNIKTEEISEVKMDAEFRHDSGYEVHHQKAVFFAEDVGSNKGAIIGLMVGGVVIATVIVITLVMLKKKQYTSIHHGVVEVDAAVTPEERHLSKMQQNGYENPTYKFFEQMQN
BE11-hAPP695 with glutamic acid at position 17 of β-amyloid, sequence (chain, as listed by the source): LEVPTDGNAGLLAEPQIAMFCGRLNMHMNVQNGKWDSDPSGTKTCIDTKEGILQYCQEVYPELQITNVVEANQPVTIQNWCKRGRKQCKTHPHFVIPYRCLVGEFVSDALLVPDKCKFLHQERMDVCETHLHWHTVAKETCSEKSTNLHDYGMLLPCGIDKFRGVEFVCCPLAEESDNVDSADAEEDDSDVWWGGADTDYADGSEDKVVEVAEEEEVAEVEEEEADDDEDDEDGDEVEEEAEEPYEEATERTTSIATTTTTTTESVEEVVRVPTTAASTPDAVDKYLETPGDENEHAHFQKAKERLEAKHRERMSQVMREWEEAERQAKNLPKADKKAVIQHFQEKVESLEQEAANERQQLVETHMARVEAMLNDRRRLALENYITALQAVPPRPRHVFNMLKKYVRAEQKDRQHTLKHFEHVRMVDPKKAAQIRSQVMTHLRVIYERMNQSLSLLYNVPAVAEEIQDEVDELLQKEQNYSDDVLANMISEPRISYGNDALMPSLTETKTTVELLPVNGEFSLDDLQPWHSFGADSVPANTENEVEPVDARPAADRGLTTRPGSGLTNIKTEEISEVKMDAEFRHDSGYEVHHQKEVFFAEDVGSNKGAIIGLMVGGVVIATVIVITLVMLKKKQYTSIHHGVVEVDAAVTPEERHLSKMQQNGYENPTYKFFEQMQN

In the case of “α-secretase (endogenous activity of the CHO-K1 cells of Example 2)”, the “α-cleavage product in culture supernatant, Western blotting” value in series [1] and in series [2] was “no α-cleavage product was detected in any culture supernatant” throughout.

Take “α-secretase (endogenous activity of the COS7 cells of Example 1)”: the “α-cleavage: amount of α-secretase cleavage product (sAPPα) in culture supernatant, Western blotting” value was “↓” in series [3]; 0 in series [4]; “↓↓” in series [5]; 0 in series [6]; “↓↓” in series [7].

“β-secretase (endogenous activity of the CHO-K1 cells of Example 2)”: in series [1], the β-amyloid production entry is listed as “produced 5 to 10 times as much β-amyloid” and the “β-secretase cleavage product in culture supernatant, Western blotting” value is given as “a β-secretase cleavage product was detected only in the fusion protein expression cell line (S)”. In addition, in series [2], the “β-secretase cleavage product in culture supernatant, Western blotting” value is recorded as “a β-secretase cleavage product was detected only in the fusion protein expression cell line (S)”.

Turning to “β-secretase (endogenous activity of the COS7 cells of Example 1)”, the “β-cleavage: amount of β-secretase cleavage product (sAPPβ) in culture supernatant, Western blotting” value in series [3] is reported as “→”; in series [4] it was “→”; in series [5], “↑”; in series [6] it was “→”; in series [7] it was “→”.

These data come from patent US20060160146.
